From patent US12127562B2, “Methods and compositions that increase pesticidal activity for FR901228” (PRO FARM GROUP, INC., priority 2020, dated 2024)
Values after ≈ are worked out from the molar mass of the structure shown. “Also recorded” adds a separate entry of the source. Where two headings read alike, the source gives them in different places.

B1: DnaK: Chaperone protein DnaK from Burkholderia rinojensis A396 (SEQ ID No. 2), His-tagged, overexpressed in E. coli (protein)
chain: MGKIIGIDLGTTNSCVAVMEGNQVKVIENSEGARTTPSIIAYMDDNEVLVGAPAKRQSVTNPRNTLFAVKRLIGRRFEEKEVQKDIGLMPYAIIKADNGDAWVEAHGDKLAPPQVSAEVLRKMKKTAEDYLGEPVTEAVITVPAYFNDSQRQATKDAGRIAGLEVKRIINEPTAAALAFGLDKAEKGDRKIAVYDLGGGTFDVSIIEIADVDGEMQFEVLSTNGDTFLGGEDFDQRIIDYIIGEFKKEQGVDLSKDVLALQRLKEAAEKAKIELSSGQQTEINLPYITADASGPKHLNLKITRAKLEALVEELVERTIEPCRIAIKDAGVKVSDIDDVILVGGQTRMPKVLEKVKEFFGKDPRRDVNPDEAVAVGAAIQGQVLSGDRKDVLLLDVTPLSLGIETLGGVMTKMINKNTTIPTKHAQVYSTADDNQGAVTIKVFQGEREMAAGNKLLGEFNLEGIPPAPRGVPQIEVTFDIDANGILHVGAKDKATGKENKITIKANSGLSEAEIDQMIKDAEANAAEDHKLRELADSRNQGDALVHSTKKAVAEYGDKLDAGEKDKIEAALKELEDVLKNTSADKAAIDAKIEALSTASQKLGEKMYADMQAQQAGAAGAAGAAEGAAHGGAQQADDVVDADFKEVKKD
modifications: His tag; Burkholderia rinojensis A396
B2: HtpG: Chaperone protein HtpG from Burkholderia rinojensis A396 (SEQ ID No. 1), His-tagged, overexpressed in E. coli (protein)
chain: MTQQTMSFQAEVKQLLHLMIHSLYSNKEIFLRELVSNASDAADKLRFEALENGALYENDPNLRIRIGFDPAARTLTIDDNGIGMSRDEAIANLGTIARSGTKEFFSKLSGDQQKDAALIGQFGVGFYSGFIVADRITVETRRAGLPASEGVRWESGGEGDFSIDAIERAARGTTITLHLREGEDELLSAHRLKSIVRKYSDHVALPILMQQEAWDAEKGEMVAKDEDETVNQASALWTRAKSEITDEQYQQFYQHLAHDHQNPLAWTHNRVEGRSEYTQLLYVPSHAPFDLWNRDYRGGLKLYVKRVFIMDDAEQLLPQYLRFVKGVVDSADLPLNVSREILQESRDVKAIREGVTKRALSMLEELANAEDDAGKEQYRTFWSAFGQVLKEGVGEDQANRERVAKLVRFASTHGGTDAQDVSLADYVARMKPEQTRIYYVTADTWQAATHSPHLEVFRKKGVEVLLLTDRVDEWMLSYLQEFDGKPLASVARGDLDLGALDDAEKKAQEETGEAFKPLVEKMKEALGDKAKDVRVTFRLTDSPSCLVADDHDMSGYLQRMLKAAGQSGPAMQPILEVNPEHPLVKQLQADSPEFGDWCHLLFDQALLAEGGALEDPASFVKRTNTLLLSRAA
modifications: His tag; Burkholderia rinojensis A396

System: Beet army worm (Spodoptera exigua)
Experiment: Beet army worm diet overlay assay (insecticidal activity)
Format: in vivo
Settings: for LC50: Spodoptera exigua, MW 540 concentration 50 μg/mL, protein concentration 0 mg/mL; for LC50 (μg/mL MW 540): Table 4, heated, MW 540 concentration 0 μg/mL, protein concentration 5 mg/mL; for insecticidal activity (in words): text summary, compared to MW 540 alone
Description: The present inventors evaluated whether these two proteins can form conjugates with MW 540 and whether the conjugate has the same insecticidal activity as MW 540 alone. One skilled in the art knows that protein purification often uses polyhistidine-tags to assist with the concentration and removal of desired proteins from cellular material. The two protein sequences were cloned into an expression vector (pET26b(+)) and over-expressed in E. coli BL21 cells with a His tag added to the C-terminus of the sequence. In other words, His-tagged HtpG and DnaK from B. rinojensis A396 were overexpressed in E. coli and were purified by immobilized metal ion affinity chromatography.
After mixing MW 540 with HtpG and/or DnaK, heat was applied to the mixture to from disulfide bond conjugates and the end-product was evaluated and its insecticidal activity determined.
Table 1's numbers are expressed as protein concentrations as μg/mL. Subsequently, the insecticidal activity of the end products was evaluated using Beet army worm diet overlay assay known in the art.

Row | Molecule | LC50 (read-out: LC50 (μg/mL MW 540), Table 2) [µg/mL] | LC50 (read-out: LC50 (μg/mL MW 540), Table 3) [µg/mL] | LC50 (read-out: LC50 (μg/mL MW 540), Table 4, unheated) [µg/mL] | LC50 (μg/mL MW 540) | insecticidal activity (in words) | insecticidal activity (in words) (listed as HtPG)
1 | C/C=C1\NC(=O)[C@H]2CSSCC/C=C/[C@H](CC(=O)N[C@H](C(C)C)C(=O)N2)OC(=O)[C@H](C(C)C)NC1=O [MW 540, romidepsin, reference compound] | 0.27 (≈ 0.499 µM) | 0.35 (≈ 0.647 µM) | 0.43 (≈ 0.795 µM) | – | – | –
2 | B1 | – | – | – | No Activity | does not exhibit insecticidal activity; also recorded: did not show insecticidal activity | –
3 | B2 | – | – | – | No Activity | did not show insecticidal activity | does not exhibit insecticidal activity
